# From US20080125498A1 (published 2008)
# T1: protease-activated receptor 1 (PAR1), rat, endogenous in hippocampal neurons (rat, UniProt P26824 46-432)
# T1 sequence (looked up): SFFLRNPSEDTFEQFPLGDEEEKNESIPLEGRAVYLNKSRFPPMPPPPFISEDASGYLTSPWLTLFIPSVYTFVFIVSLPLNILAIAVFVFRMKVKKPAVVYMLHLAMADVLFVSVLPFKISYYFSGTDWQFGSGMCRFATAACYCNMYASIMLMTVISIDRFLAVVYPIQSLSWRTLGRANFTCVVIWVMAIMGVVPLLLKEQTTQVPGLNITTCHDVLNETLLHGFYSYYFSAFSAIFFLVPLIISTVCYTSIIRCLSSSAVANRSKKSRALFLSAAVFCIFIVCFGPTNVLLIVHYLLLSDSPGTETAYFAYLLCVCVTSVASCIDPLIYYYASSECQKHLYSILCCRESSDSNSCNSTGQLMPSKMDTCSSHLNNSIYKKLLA
# Target: T1, protease-activated receptor 1 (PAR1), …
# Test: cell-based or functional assay
binder,measurement,value
SFLLRN,"potentiation of the response to NMDA plus glycine in CA1 pyramidal cells, 30 micromolar SFLLRN",1.76 fold
